Measurements published in patent US20220242963A1, “B-CELL ACTIVATING CD73 ANTIBODIES” (CORVUS PHARMACEUTICALS, INC., priority 2018, published 2022).

Tests used:
[1] = Phase 1/1B clinical trial: serum levels of free CPI-006 by ELISA; type: in vivo, human
Protocol: FIGS. 3A-3D show the pharmacokinetics/pharmacodynamics and CD73 receptor occupancy of CPI-006 after a first infusion in human patients. […] The dotted line marks one-hundred percent occupancy CD73 receptor occupancy.
With reference to Table 1, serum samples were collected from patients treated with CPI-006 alone (i.e., monotherapy) and levels of free CPI-006 were measured by ELISA, as shown in FIG. 3A. Whole blood samples from patients treated with CPI-006 alone were fixed and receptor occupancy was measured by flow cytometry gating on CD73+CD8 T cells, as shown in FIG. 3B. As illustrated in FIGS. 3A-3D, receptor exposure to CPI-006 increases and clearance decreases with increasing doses of CPI-006, and CIP-006 is detectable for 21 days after administration of a single dose of 6 mg/kg or higher. […] Other results from the study are described below and in Table 4. BLQ is below limit of quantification. TBD is to be determined.

CD73 = biological target: T1, CD73 (Homo sapiens, UniProt P21589); assay: Occupancy and inhibition of CD73 in a tumor biopsy of a treated colorectal cancer patient; type: in vivo; details: 12 mg/kg, retroperitoneal lesion at trough pre-dose 3, FIG. 5
T1 construct: endogenous in cells; host or cells: Whole blood of cancer patients (CD73+ CD8 T cells)
T1 sequence (P21589 27-549): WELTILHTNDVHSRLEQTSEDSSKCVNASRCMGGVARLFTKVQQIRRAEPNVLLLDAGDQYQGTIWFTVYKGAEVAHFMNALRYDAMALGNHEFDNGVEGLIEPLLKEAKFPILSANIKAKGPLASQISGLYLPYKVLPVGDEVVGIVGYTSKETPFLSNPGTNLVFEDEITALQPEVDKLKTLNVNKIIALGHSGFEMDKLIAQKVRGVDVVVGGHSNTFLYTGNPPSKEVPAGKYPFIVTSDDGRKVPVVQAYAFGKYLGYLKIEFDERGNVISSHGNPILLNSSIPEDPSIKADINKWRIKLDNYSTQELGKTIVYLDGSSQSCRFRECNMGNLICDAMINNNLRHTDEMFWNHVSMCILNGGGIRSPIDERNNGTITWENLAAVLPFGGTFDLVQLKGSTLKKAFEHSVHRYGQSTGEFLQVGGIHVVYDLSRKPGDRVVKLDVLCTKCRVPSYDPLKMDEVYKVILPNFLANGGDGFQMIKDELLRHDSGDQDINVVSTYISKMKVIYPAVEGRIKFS
Protocol: The tumor biopsy was of a retroperitoneal lesion obtained at trough pre-dose 3.
A tumor biopsy taken from a colorectal cancer patient treated with CPI-006 was evaluated for inhibition of CD73 enzymatic activity.

solid tumors = assay: Phase 1/1B clinical trial: disease control and tumor size; type: in vivo, human
Description: FIGS. 6A-6B show cancer patients being treated with various doses of CPI-006 alone (FIG. 6A) or a combination therapy of CPI-006 and ciforadenant (FIG. 6B). A cycle is once every 21 days. Disease assessment occurred every 3-4 cycles. […] HDNCK refers to head and neck cancer. mCRPC refers to metastatic castration-resistant prostate cancer. BLADD refers to bladder cancer. PANC refers to pancreatic cancer. COLORECT refers to colorectal cancer. RCC refers to renal cell carcinoma. SD indicates stable disease and PD indicates progressive disease.
The highest line at day 10 represents 1 mg/kg, the second highest line at day 10 represents 3 mg/kg, the second lowest line at day 10 represents 6 mg/kg, and the lowest line at day 10 represents 12 mg/kg.
Cancer patients treated with CPI-006 monotherapy or a combination therapy of CPI-006 and ciforadenant were assessed for disease control.

inflammatory cytokines = assay: Phase 1/1B clinical trial: serum cytokine levels; type: in vivo, human; details: patients following treatment
Protocol: Immunomodulatory activity of CPI-006 was evaluated in patients administered CPI-006. […] Further, T cell activation was evaluated upon treatment with various dosages of the monotherapy CPI-006 or a combination therapy of CPI-006 and ciforadenant. Once a T cell clone is activated, the clone can expand and produce clonal copies of the original clone. […] The results further affirm CPI-006 is an immunomodulator of CD73 positive cells.

[2] = with increasing doses of CPI-006, first infusion, FIGS. 3A-3D

B1: CPI-006: humanized CD73 antibody, wherein the light chain is SEQ ID NO:8 and the heavy chain is SEQ ID NO:7; IgG1 Fcγ receptor-deficient (antibody, V domains shown)
VH: QVQLVQSGAEVEKPGASVKVSCKASGYTFTSYWITWVRQAPGQGLEWMGDIYPGSGNTNYNEKFKTRVTITADKSTSTAYMELSSLRSEDTAVYYCAKEGGLTTEDYALDYWGQGTLVTV
VL: EIVLTQSPATLSLSPGERATLSCRASKNVSTSGYSYMHWYQQKPGQAPRLLIYLASNLESGIPPRFSGSGYGTDFTLTINNIESEDAAYYFCQHSRELPFTFGQGTKVEIK
Serum CPI-006 at C1D8 ([1]; 1 mg/kg, patients 1-3, BLQ is below limit of quantification): BLQ
Serum CPI-006 at C1D8 ([1]; 6 mg/kg, patient 7 (Colorectal)): 23.60 µg/mL
PK dose dependence ([1]; clinical data, 1, 3, and 6 mg/kg): dose proportional
time detectable in serum after administration ([1]; single dose of 6 mg/kg or higher): 21 days
clearance [1, 2]: decreases
exposure to CPI-006 [1, 2]: increases
CD73 enzymatic activity in tumor biopsy (CD73): inhibit CD73 enzymatic activity
occupancy of CD73 in tumor biopsy (CD73): binds and saturates CD73
size of a prostate tumor (solid tumors; after 2 cycles of treatment, i.e., after 42 days, FIG. 7E): reduction in the size
disease control (solid tumors; cancer patients, cycle once every 21 days, FIGS. 6A-6B): higher doses of CPI-006 monotherapy provide longer term disease control
target lesion (solid tumors; one metastatic prostate cancer patient, 6 mg/kg monotherapy, treatment ongoing through 11 cycles, FIG. 7E): decrease in the target legion
cytokines including TNF-α, TNF-β, MIP-1α, MIP-1β, IL-6, IL-10, IL-8, IP-10, MCP-1, MCP-2, IL-1Ra, GRO-α, MIP-3α, TNF-RII, IL-7, MMP-9 (inflammatory cytokines; FIG. 8A): rapid induction
levels of CRP and SAA (inflammatory cytokines; FIG. 8B): subsequent increase
